Reference: the DeepSol protein solubility set

Assay: soluble on expression in E. coli; label from the status in PepcDB or PDB records

Soluble on expression in E. coli, not soluble:
MAHHHHHHMYAPFAAQEGNGGMFDFFFSAAASETLCASSAGSNSNNTGIGHGGGEAANGFNAASAGPLVENNNSNDDRVGRLNFDFASFFFQGGQSGAYDDSGLDAAGRGDDGSGADARRSEHYIQRGSADAADSTGKGVLPALGFFFPEDQVAPAAAGGSLILPPTSWCVESAAGADNRYSPPQVQPQNPAAVRETAASLKGDEAAHTVAPPGAALTVLKSDPTHIAPVDQTLVQRLPCEHASSSAMDHECSLAAALAAAPSSLGLLSDEESQRTTVPLSRTSDAEEAKCDETPTRLVAGNSCPEPEARDSSVAEGVAEEDAMPAPTHSRQPPPRVPVVSLPRSSHPPGAAPAGAVVTPTPPSPRQPPAPLTVSTSTPYRPEVPLLIGPAGHDATSVALSKAIGEAEEVWAHRLDMVPITCPERRDAEMGMSCSGFTPSSSSDAVFLAEVAQLQQQTARLTEESARSVTSLQVLTSDLLRILGPHAALSSFAGEQYAGTPLVHLPWALIAVLEGLLNDDADAEEKAEGQLVAPRPSSEGVESGSSGVHDA
VERAQDGLYTIDERGVIDFCNDSFAATLGYEPGKLCGTHILEVLAPGEFPKGQAAVEELLEAPDQESTTVDLTFRRKDGAERELSFNHTLTHDEAGNYNGVIGVARDVT
MSLSFDVVFVGHRRGEVRSDNAMLGLLCDAAFDELTRPDVVIFPGGIGTRTLIHDQTVLDWVREAHRHTLLTTSVCTGGLVLAAAGLLNGLTATTHWRVQDLFNSLGARYVPQRVVEHLPERVITAAGVSSGIDMGLRLVELLVSREAAEASQLMIEYDPQPPVDAGSLAKASPATHRLALEFYQHREGHHHHHH
MKTNVIIDGDACPVVNSVIELTKGTGIFVTILRSFSHFSQQIQPEHVKIVYVDDGPDAVDYKIVELASNNDIVITQDYGLASLLIDKVHTVMHHKGNIYHSNNIQSLLDQRYLNAQIRRRGLEHHHHHH
MGSDKIHHHHHHAEVADSIEGGNGEAPLEVRAVTGAEVDTRAPAAVEMTEGTLGIFRLAEADYTALDNIRYDRVPGGNWHPVSTVIYVGGTYARLCAYAPYNSVEFKNSSLKTEAGLTMQTYAVEKDMRFAVSGGDEVWKKTPTANFELKRAYARLVLSVVRDATYPNTCKITQAKIKASTGNIITANTVDISTGTEGSGTQTPQYTHTVTTGLKDGFEIGVTDDTSFDWLLPQQTFSGGVVLTLTVDGMDYSVTIPVDKLSTFVRGTKYTVSLVVKGGKLTLMSDKILIDRDWTEVQTGTGGSGSDYDTSFN
MSLPPCPQCASEYTYEDGGQYICPECAHEWNETESAADLAAQVRDANGAVLQNGDTVILIKDLKVKGSSMVIKQGTKVKGIRLQEGDHNIGCKIDGSAMNLKSEFVKKA
MAHSAAAVPLGALEQGCPIRVEHDRRRRQFTVRLNGCHDRAVLLYEYVGKRIVDLQHTEVPDAYSGRGIAKHLAKAALDFVVEEDLKAHLTCWYIQKYVKENPLPQYLERLQP
MGSDKIHHHHHHMTPEQFEVKANPALWERLGMNVERFSGMPKMLTEAFRGIYLSQKNRPARMEYFDGMIAELHSGRVEELVTAKDAGRPVVGTFCVYVPEEVIMAVGGICVGLCGGSQGSIPDAEKVLPRNICPMVKSAFGFKLGKICPYFQAVDLVYGETTCDAKKKTWELLDREVPTHVMEIPQMKRARDKALWLEEVKDFTSKMEEVSGRKATAEGIGAAIRVMNAKRLALQRLNDLRHHTPSPISGKDMLLIQQIAFYDDPARFTANVNELCDELDERIAAGVAVAPAATPRVMVSGTPMALPNWKLHHLIESAGAVVVNEESCIGTRYYKDLTDESTATVDEQLSLLTDRYMKIDCSCFTPNDDRIEQVLVEYRASGAQGLIDYCLQFCHTYNIEAVKLREMCEREGIPFLAIETDYSPEDVGQLQTRIEAFIEQIRG
MGSDKIHHHHHHMKGIDVSSYQGTIAWGKVKWAGVQFAILKIIRKDLNPDKTFEQNWQGCTEAGMPIQGVYNYSYATTTEKAKTDAKRVIEVLAGRKTFVWLDVEDRCQQGLGQTLIDIINTYQSEIKTAGLEFGVYTGLSFYNTYILPYANQINCPFWIARYPSTKGMTIGDDPNDAKKPAIAHSLYGWQYTSAFTCSGLNNSTDANLLYVELGTKDTTAASQPVSAPVKPNNESWKGDIDYYLESEEVRKWQHAMNVGFDLKGADALKEDGKFGADSQAFAKSHNLWNGQKHYCPTAIKWLRRTLHDVYSFTKLDTDYKEWSDYLSKCVMVFQKNRGLTQDARVGLLTTYRLLKG
MTDNLNLGAIDLGTDDEFIARHIGPRAADTQAMLQRLGYDSLDTLIGNVIPDSIKGSSVLDLPAGMGEAEALASLKAIAARNRALRSFIGQGYYNCHTPAPILRNLLENPAWYTAYTPYQPEISQGRLEALLNFQTLVSDLSGLPIANASMLDEATAAAEAMTFCKRLSKNRTSQAFFASRHCHPQTLDVLRTRAEPLGIEVVVGDESTIEDFSAYFGALLQYPTCDGEIVDYRELVSRFHAVDALVAVAADLLALTLLTPPGEFGADVAIGSAQRFGVPLGFGGPHAAYFATRDAFKRDMPGRLVGVSIDRHGKPAYRLAMQTREQHIRREKATSNICTAQVLLANIASMFAVYHGPQGLLRIARRTHRLTAILAAGLERLGVAVEQKHFFDTLSLATGARTAAIHAKARAAGINLREIDAGRLGLSLDETVRQTDVETLWGLLAEEGQALPDFAALAASSGDRLPVELLRQSAILSHPIFNRHHSETELMRYLRKLADKDLALDRTMIPLGSCTMKLNAASEMIPVTWAEFGNLHPFAPAEQSEGYRQLTDELEAMLCSATGYDAVSLQPNAGSQGEYAGLLAIRAYHQSRGDSQRDICLIPSSAHGTNPATASMVGMRVVVVACDARGNVDVEDLRNKASEHKERLAALMITYPSTHGVFEEAIREICAIVHDCGGQVYIDGANMNAMVGLCAPGKFGGDVSHLNLHKTFCIPHGGGGPGVGPIGVRAHLAPFLPGHARGERKEGAVSAAPYGSASILPITWMYIRMMGGEGLKRASEMAILNANYIAHRLEEHYPVLYAGGNGLVAHECILDLRPLKDSSGISVDDVAKRLMDFGFHAPTMSFPVAGTLMIEPTESESKAELDRFCDAMIRIREEIRAVERGELDKEDNPLKNAPHTAAELLGEWNHAYSREQAAYPLASLVEAKYWPPVGRVDNVYGDRNLTCSCPPIEAYS
MSESGHRKGQAIIVQYSDSSSAYYAYAEGIEDDIIISSRYCPSNEDLLGKWIHLAIDDRSYACDTIQVIDDVFETKVFRGQVEVKINIQFDGRTARGMGMFYNDYFGYICDPNNVLHNTRDGANHNNVWVVRRNAEGLNSRWKVSSEQDDIQHIFPRPENVDKLETVVGVITTHAKLGDFYLVWSPSRPRSTICIAYKFCPSKSNLLGTWAEMRVNRSQRVQRPISVIDALYETRTIFGMTEFRIDFQQTRRFNPDYHLFYHEYFGGILDTLCIIDDVKEGGWYNGWIVYSQHSDASTYWRLAMKQTVLGPYNSPYSCLSPLQQDNNFNEPRNMDPNPPYRTRDRSRSMDRSTRHATRRVDEFTHKRRSPSPEVINVYKEPSRSHANELYDSQKNQYTSHEGHSTSSPTAENRQCHRSRSPEQSNFRPSQTVPGLSSMEQRKAHENVDWGPHRTKNVPPIRSATETPETDHRQDDQSVASTSALYLLDSPGPDPSPKLHLTSEEKELKKLKTKLSRICKLSLSFTANDSVSTPMQLHSLEEYEELIKLTNKFQ
MQAKEEKEFTLQERRCLIVWVYTLKPLKQLRRYGLIHYVSRKMKYVVIYMNEENIESNMEKINQLHFVRSVDKSYRPDVEMNFAEKIGTKAAYQEQEDDGYVVEELSTEIRLAENV
MCFIMSKRNTQLRRHTIVKLVNEQGEVSVEALSSQFETSEVTIRKDLASLEKNGQLLRRYGGAIALPKEVMHDELNEKVSVRKISLAKAAAKLIRDHNRIVIDSGSTTAALIQQLNDKRGLVVMTNSLHVANALNELENEPTLLMTGGTWDTHSESFQGKVAESVLRSYDFDQLFIGADGIDLDRGTTTFNELVGLSKVMAEVSREVIVMIESDKVGRKIPNLELSWDNIDVLVTDHELSDEFAKQIESHQVRVIRATVK
MGSDKIHHHHHHAKPVTSETMAAKTVGLQIYSLGKELYADVPGGLKKIKQMGYTNLELAGYKEGKIGGVDMMEFKKMVDDAGLKITSSHVNPPVREYTKANRSQISEYWKKTADDHAKLGVKYLIQPGQPSTRSTEETAFVCEIFNEAGKIVKAAGIPFGYHNHEMEFAKVNPGSTEAKLGRRVKGDCIYELFLKNTDPSLVFFEMDVYWAVMGQQDPIEWLKKYPNRIKVLHIKDRAILGESGMMNFENIFRQAYANGIKDYFVELEGMPDGRSQFEGVKGCVDYLLKAPFVK
MTFTPPEFKILSVNTRNLETIFSTLLGRYKIITDPPVSEAVSSGEIIRNTLETLLARTHKVVICKTDRETARDVFKQLSNELREVLKENNEEKNKQAILFLLGALLHRYFRLIKEYDNFNSYIPYPSFLFSKPPSNVKDCRLFQAIRLALGLPEVMERNYRINDLKILDVTTIVTALETFRDNMQLIVGKDEGKMPRYKSYPHFAADKNFETYLQEIIDEHKRRNPVVLNQFKAINFIQSLVKQIEEEQRQIEEALTHLGKFLPKTCSDFKTISLELMEEQIKAQIESNVLQEKIIDLLYTGHIQENFSTMDCGSFIEAMKNCNSSLARYRALGGYCLLLQNEGVKEQLRFCIHQALGVEINPNELTDKDMLDAIRLLKTYFEANPKVELNFDFFNGKGSMNTFILQTELALAKKVQTVNKAQEDNSETRTTSLFV

Soluble on expression in E. coli, soluble:
MQDSKIPPFSEAKRMKIPTPKQPLTQLPPRIGKKVSNRSKSNQVHAISHQLEMSPNSDSSPGNEYRALRRKYLLLEEDSFALERELKEAEDEVKALEDEKLELLDKLVVMEGLVDP
MVNNEYQQLNTLVESDDEADLVIANLVKQLNELKQILVSLDNQEASATAVTDKKEEEYNQNQSSFHNFSKETLQKQAKRGFLLLERCSLVGLQQLELEYVNLLGRSFDSYQQKTELLNNLKELVDEHFSDTEKIINTLEKIFDVIGGSEYTPVLNSFFNKLLSDPDPIQREIGLRQFIITLRQRFKKLSQKIDSSLKQIETEAKIATEQVQNSEVMFGPPDIANDHELNLNWPDSETDAILSSMENELEAALLAKHQEEPPLIVTPPSLIKPTVSQPEVEVVTPTNNTNFQPQVDLKPTDLKKQQKKKPLNFITRPVFKSNLPPKLSKDDIVHYAHQLLEKNTHNE
MSLKLNTSNSPFTEKQVTEINNLLQTLTESQQQWLSGFLLANSNDTTSDSNQQQLETEVWQQSQISEEQATSTTYMLQNKEPHIEANQRHVTVLYGSESGNAMRLAEIFSERLSDIGHQVVLMSMDEYDTTNIAQLEDLFIITSTHGEGEPPDNAWDFFEFLEDDNAPNLNHVRYSVLALGDQTYEFFCQAGKDVDALLENLGAERICKRVDCDIDYEEDAEKWMADIINMIDTTSEGIQSESVISESIKSAKEKKYSKLNPYQAEVLANINLNGTDSNKETRHIEFLLDDFSESYEPGDCIVALPQNDPELVEKLISMLGWDPQSPVPINDRGDTVPIVEALTSHFEFTKLTLPLLKNADIYFDNEELSERIQDESWAREYVINRDFIDLITDFPTIELQPENMYQILRKLPPREYSISSSFMATPDEVHITVGTVRYQAHGRERKGVCSVHFAERIKPGDIVPIYLKKNPNFKFPMKQDIPVIMIGPGTGIAPFRAYLQEREELGMTGKTWLFFGDQHRSSDFLYEEEIEEWLENGNLTRVDLAFSRDQEHKEYVQHRIMEESERFNEWIEQGAAIYICGDEKCMAKDVHQAIKDVLVKERHISQEEAELLLRQMKQQQRYQRDVYEGHHHHHH
MKKVITYGTFDLLHWGHIKLLERAKQLGDYLVVAISTDEFNLQKQKKAYHSYEHRKLILETIRYVDEVIPEKNWEQKKQDIIDHNIDVFVMGDDWEGKFDFLKDQCEVVYLPRTEGISTTKIKEEIAGL
